# Experimental data as given in patent US20040170622A1, “Methods and compositions for modulating XBP-1 activity” (President and Fellows of Harvard College, priority 2002, published 2004).
# Where a SMILES comes first, the peptide text is derived from it. The star is where a group is joined. Cbz = O=C(OCc1ccccc1)*
# B1: XBP-1s: vector encoding only the spliced form of murine XBP-1, a protein of 371 aa (protein)
# chain: MVVVAAAPSAATAAPKVLLLSGQPASGGRALPLMVPGPRAAGSEASGTPQARKRQRLTHLSPEEKALRRKLKNRVAAQTARDRKKARMSELEQQVVDLEEENHKLQLENQLLREKTHGLVVENQELRTRLGMDTLDPDEVPEVEAKGSGVRLVAGSAESAAGAGPVVTSPEHLPMDSDTVASSDSESDILLGILDKLDPVMFFKCPSPESASLEELPEVYPEGPSSLPASLSLSVGTSSAKLEAINELIRFDHVYTKPLVLEIPSETESQTNVVVKIEEAPLSSSEEDHPEFIVSVKKEPLEDDFIPELGISNLLSSSHCLRPPSCLLDAHSDCGYEGSPSPFSDMSSPLGTDHSWEDTFANELFPQLISV
# B2: dn-XBP: dominant negative XBP-1 containing the N-terminal 188 aa, lacking transactivation domain, retaining leucine zipper (protein)
# chain: MVVVAAAPSAATAAPKVLLLSGQPASGGRALPLMVPGPRAAGSEASGTPQARKRQRLTHLSPEEKALRRKLKNRVAAQTARDRKKARMSELEQQVVDLEEENHKLQLENQLLREKTHGLVVENQELRTRLGMDTLDPDEVPEVEAKGSGVRLVAGSAESAAGAGPVVTSPEHLPMDSDTVASSDSESD
# Assays:
# Assay type in all cases: cell-based
# [1] = tested on: XBP-1 protein; assay: XBP-1 protein species in MOPC315 and MM.1S myeloma cells treated with proteasome inhibitors (Western blot); conditions: mouse myeloma MOPC315 and human myeloma MM.1S
# Procedure: A variety of reversible and irreversible inhibitors that inhibit degradation of proteins by the ubiquitin-proteasome pathway have recently been identified. Proteasome inhibitors MG132 and PS341 block the rapid degradation of ubiquitinated proteins such as unspliced, but not spliced XBP-1. Myeloma cells express primarily spliced XBP-1 protein as expected. […] In this experiment lysates from MOPC315 cells were untreated or treated for 6 hours with 5 ug/ml of tunicamycin or 20 uM of MG-132 and were analyzed for the presence of XBP-1 using XBP-1 antibody. The two forms of XBP-1 were distinguished by their molecular weight.
# In the presence of proteasome inhibitors, unspliced XBP-1 protein accumulates in the cell and is present at higher levels than the spliced protein. Lysates from Mm. 1S cells were untreated or treated for 1, 4, or 8 hours with 20 uM of PS-341 and were analyzed by western blotting with anti-XBP-1 antibody. Because unspliced, but not spliced XBP-1 is stabilized, the ratio of unspliced to spliced XBP-1 increases in cells treated with proteasome inhibitors.
# [2] = tested on: spliced XBP-1; assay: Inhibition of transactivation function of spliced XBP-1, luciferase in NIH 3T3 cells; conditions: NIH 3T3, 200 ng spliced XBP-1, 200 ng mutant
# Procedure: Versions of XBP-1 with various deletions of the C terminal transcription activating domain (e.g., consisting of the N terminal 225, 188, or 136 amino acids of the spliced form of XBP-1) that expressed high levels of protein by western analysis were created. The proteins were tested for their ability to inhibit the transactivation function of spliced XBP-1. Both the 188 and 136 N terminal mutants were extremely potent inhibitors (effective at a 1:1 ratio) of the spliced XBP-1. NIH 3T3 cells expressing XBP-1uc constructs were transfected with 200 ng of spliced XBP-1, yielding a relative luciferase activity of 44.5. 200 ng of XBP-N188 lowered the luciferase level to 1.8 and 200 ng of XBP-N136 lowered the luciferase activity to 2.2.
# [3] = tested on: XBP-1; assay: XBP-1 dependent gene expression in dn-XBP / iXBP transduced J558 cells (Northern, Western blot)
# Description: (A) Synergistic effect of Tm and MG-132 on apoptosis. Annexin V positive cells were counted after treating J558 cells for 18 hrs with suboptimal concentrations of Tm and MG-132 as indicated. (B) J558-iXBP cells were generated by retroviral transduction of J558 cells with the U6 promoter based XBP-1 RNAi vector. (C) XBP-1 dependent gene expression in J558 cells that express control GFP, dn-XBP or iXBP-1 treated with Tm. Generation of dn-XBP-1 J558 cells by infection with a retrovirus containing dn-XBP cDNA inserted into the GFP-RV vector (N. N. lwakoshi et al., Nature Immunology 4, 321-329 (2003)). ERdj4, p58^IPK, BiP and CHOP gene expression were examined by Northern blot analysis. (D) Increased apoptosis in iXBP-1 and dn-XBP-1 expressing J558 cells. Cells were treated with the indicated amounts of Tm for 48 hrs and dead cells counted after Annexin V staining.
# Total RNA was prepared by using Trizol reagent, electrophoresed on 1.2% agarose, 6% formaldehyde gels and then transferred onto Genescreen Plus membrane, (NEN, Boston, Mass.). […] Probes for ERdj4 and p58^IPK were generated from cDNA excised from EST clones (ATCC, Manassas, Va.) using appropriate restriction enzymes (ERdj4, IMAGE: 1920927; p58^IPK, IMAGE:2646147). […]
molecule,measurement,setting,value
CC(C)C[C@@H](C=O)NC(=O)[C@H](CC(C)C)NC(=O)[C@H](CC(C)C)NC(=O)OCc1ccccc1 [MG-132] (Cbz-Leu-Leu-Leu-aldehyde),amount of unspliced XBP-1 protein,[1],dramatic increase in the amount of unspliced XBP-1 protein
same,levels of active spliced XBP-1 protein,[1],concomitant decrease in levels of the active spliced XBP-1 protein
B1,relative luciferase activity,[2],44.5
B2,induction of BiP and CHOP by Tm,[3],minimally affected
same,induction of ERdj4 and p58IPK by Tm,[3],"greatly reduced induction of XBP-1-dependent UPR target genes, ERdj4 and p58^IPK"
